Assay results: publication PMC6542726 (Molecular psychiatry, 2018)

What was measured:
[1] = target: GABAA receptor associated protein (GABARAP) (mouse) (UniProt Q9DCD6); test: ITC
[2] = target: GABAA receptor associated protein (GABARAP) (mouse, UniProt Q9DCD6 1-117); test: ITC
Sequence of GABAA receptor associated protein (GABARAP) (Q9DCD6 whole entry): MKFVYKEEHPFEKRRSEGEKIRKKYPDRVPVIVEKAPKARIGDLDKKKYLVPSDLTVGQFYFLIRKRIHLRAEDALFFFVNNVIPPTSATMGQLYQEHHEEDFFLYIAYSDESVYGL

Sequence of GABAA receptor associated protein (GABARAP) (mouse) (Q9DCD6 whole entry): as above

In the case of “ankyrin-G W1989R (from UniProt O70511 1985-2010) (domain or fragment)”, the Kd [1] is reported as 11 µM.

B1: ankyrin-G fragment of 26 amino acids (residues 1985-2010) (domain or fragment)
chain: PEDDWTEFSSEEIREARQAAASHAPS
Molecule B1 has a Kd [2] of 0.0029 µM.
